The target of the test is T1, purified K491me-bearing Flag-cGAS (mouse, UniProt Q8C6L5 1-507, monomethyl-lysine at K491).
T1 construct: cyclic GMP-AMP synthase (cGAS), mouse (K491 is the mouse numbering); also called K491me-bearing cGAS; purified Flag-cGAS protein methylated by His-SET7; source: bacterially purified, then methylated in vitro with purified His-SET7
The experiment in a line: pull-down; purified Flag-cGAS methylated in vitro by purified His-SET7, incubated with purified SGF29, then with biotin-PAR; streptavidin pulldown, immunoblot; binding of SGF29 read from the loss of PAR-bound cGAS. Particulars: both partners purified.

T1 sequence (Q8C6L5 whole entry): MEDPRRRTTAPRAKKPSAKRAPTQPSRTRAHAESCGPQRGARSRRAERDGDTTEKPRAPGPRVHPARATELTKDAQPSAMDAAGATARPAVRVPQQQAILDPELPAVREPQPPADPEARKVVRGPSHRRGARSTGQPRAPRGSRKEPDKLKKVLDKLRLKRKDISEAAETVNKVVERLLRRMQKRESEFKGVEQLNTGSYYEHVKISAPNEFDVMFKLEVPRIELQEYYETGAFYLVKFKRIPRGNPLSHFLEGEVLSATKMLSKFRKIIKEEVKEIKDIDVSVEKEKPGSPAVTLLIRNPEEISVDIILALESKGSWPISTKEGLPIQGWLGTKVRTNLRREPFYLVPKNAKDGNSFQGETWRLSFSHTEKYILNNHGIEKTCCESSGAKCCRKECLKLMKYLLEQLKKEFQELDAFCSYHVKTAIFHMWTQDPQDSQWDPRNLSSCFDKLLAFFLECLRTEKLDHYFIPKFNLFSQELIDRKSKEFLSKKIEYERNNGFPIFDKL

B1: purified His-SGF29 protein (natural protein, mouse, UniProt Q9DA08 1-293, looked up)
chain: MALVSADSRIAELLTELHQLIKQTQEERSRSEHNLVNIQKTHERMQTENKISPYYRTKLRGLYTTAKTDAEAECNILRKALDKIAEIKSLLEERRIAAKIAGLYNDSEPPRKTMRRGVLMTLLQQSAMTLPLWIGKPGDKPPPLCGAIPASGDYVAKPGDKVAARVKAVEGDEQWILAEVVSYSHATNKYEVDDIDEEGKERHTLSRRRIIPLPQWKANPETDPEALFQKEQLVLALYPQTTCFYRALIHTPPQRPQDDYSVLFEDTSYADGYSPPLNVAQRYVVACKEPKKK
notes: SAGA complex-associated factor 29 (SGF29); mouse and human SGF29 were cloned; also called purified WT SGF29 protein; source: E. coli BL21(DE3), purified
With B1, the binding result is given as “binds”.

(Values after publication PMC8873214, “RIOX1-demethylated cGAS regulates ionizing radiation-elicited DNA repair” (Bone Research, 2022).)
